In publication PMC4663176 (Insect biochemistry and molecular biology, 2015):
Like-named read-outs stand apart in the source and are kept apart here.

Key:
[1] = target: T1, Arylalkylamine N-acyltransferase like 2 (AANATL2) (Drosophila melanogaster, UniProt Q9VMG0); test: dead-end inhibition kinetics, DTNB assay of CoA release, purified enzyme; type: biochemical
T1 sequence (Q9VMG0 1-216): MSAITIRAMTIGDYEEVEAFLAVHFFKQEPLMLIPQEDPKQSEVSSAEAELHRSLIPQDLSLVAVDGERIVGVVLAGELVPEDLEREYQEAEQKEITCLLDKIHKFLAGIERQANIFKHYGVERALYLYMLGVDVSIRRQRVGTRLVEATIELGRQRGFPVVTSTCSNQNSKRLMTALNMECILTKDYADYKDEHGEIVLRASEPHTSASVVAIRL

[2] = target: T1, Arylalkylamine N-acyltransferase like 2 (AANATL2); test: as above; type: biochemical; remark: listed apart in the source
[3] = substrate: NCCc1c[nH]c2ccc(OCc3ccccc3)cc12; test: steady-state kinetics; type: biochemical, Drosophila melanogaster; conditions: acetyl-CoA; pH 8.0
[4] = substrate: CC(CN)c1ccccc1; test: steady-state kinetics; type: biochemical, Drosophila melanogaster; conditions: acetyl-CoA; pH 8.0
[5] = substrate: NCCc1c[nH]c2ccccc12; test: steady-state kinetics; type: biochemical, Drosophila melanogaster; conditions: acetyl-CoA; pH 8.0
[6] = substrate: NCCCCc1ccccc1; test: steady-state kinetics; type: biochemical, Drosophila melanogaster; conditions: acetyl-CoA; pH 8.0
[7] = substrate: COc1ccc(CCN)cc1; test: steady-state kinetics; type: biochemical, Drosophila melanogaster; conditions: acetyl-CoA; pH 8.0
[8] = substrate: NCCc1cccc(C(F)(F)F)c1; test: purified protein; conditions: acetyl-CoA; pH 8.0
[9] = substrate: CC(=O)SCCNC(=O)CCNC(=O)[C@H](O)C(C)(C)COP(=O)(O)OP(=O)(O)OC[C@H]1O[C@@H](n2cnc3c(N)ncnc32)[C@H](O)[C@@H]1OP(=O)(O)O; test: purified protein; conditions: acetyl-CoA binds first in an ordered sequential mechanism

Molecule: OCCc1ccc(O)cc1 [tyrosol]
- Ki [1]: 52 ± 9 µM

Molecule: CCCCCCCC/C=C\CCCCCCCC(=O)SCCNC(=O)CCNC(=O)[C@H](O)C(C)(C)COP(=O)(O)OP(=O)(O)OC[C@H]1O[C@@H](n2cnc3c(N)ncnc32)[C@H](O)[C@@H]1OP(=O)(O)O [oleoyl-CoA]
- Ki [2]: 0.18 ± 0.03 µM

B1: Arylalkylamine N-acyltransferase like 2 (AANATL2) (Drosophila melanogaster) (protein)
chain: T1 sequence (Q9VMG0 1-216)
- Km [3]: 8 ± 1 µM
- kcat [3]: 2.8 ± 0.1 s⁻¹
- kcat/Km [3]: 330000 ± 40000 M⁻¹ s⁻¹
- Km [4]: 9 ± 1 µM
- kcat [4]: 2.9 ± 0.1 s⁻¹
- kcat/Km [4]: 320000 ± 40000 M⁻¹ s⁻¹
- Km [5]: 14 ± 3 µM
- kcat [5]: 4.3 ± 0.3 s⁻¹
- kcat/Km [5]: 310000 ± 60000 M⁻¹ s⁻¹
- Km [6]: 9.5 ± 0.4 µM
- kcat [6]: 1 ± 0.02 s⁻¹
- kcat/Km [6]: 110000 ± 5000 M⁻¹ s⁻¹
- Km [7]: 10 ± 2 µM
- kcat [7]: 3.7 ± 0.1 s⁻¹
- kcat/Km [7]: 370000 ± 60000 M⁻¹ s⁻¹
- Km [8]: 10 ± 2 µM
- kcat [8]: 4.5 ± 0.2 s⁻¹
- kcat/Km [8]: 440000 ± 70000 M⁻¹ s⁻¹
- Km [9]: 5 ± 1 µM
- kcat [9]: 1.6 s⁻¹
- kcat/Km [9]: 310000 M⁻¹ s⁻¹
